Results published in PMC6269467 (Nature Communications, 2018).

What was measured:
[1] = target: T1, filamentous actin (F-actin) from rabbit skeletal muscle (rabbit, UniProt P68135 1-377); assay: BLI; F-actin immobilised on Streptavidin (SA) biosensors through LAbio peptide; αcat-ABD in solution at various concentrations; 26 °C, Octet384; 2 mM Tris-HCl pH 8.0, 0.2 mM ATP, 0.5 mM DTT, 0.1 mM CaCl2, 50 mM KCl, 2 mM MgCl2, 0.1% BSA, 0.02% Tween-20; 2:1 heterogeneous ligand model; conditions: both partners purified
[2] = target: T1, filamentous actin (F-actin) from rabbit …; assay: BLI; as a2 but Super-Streptavidin (SSA) biosensors with increased streptavidin density, used for αEcat-ABD-H1; 1:1 binding model; conditions: both partners purified
[3] = target: T1, filamentous actin (F-actin) from rabbit …; assay: co-sedimentation; actin cosedimentation at high RCF: 5 μM ABD and 5 μM actin in 50 μL Buffer-F, 1 h at RT, Airfuge ≥100,000×g 20 min at RT; supernatant and pellet by SDS-PAGE with coomassie, band intensity by ImageJ; conditions: both partners purified
[4] = target: the molecule itself; assay: crystal structure; αNcat-ABD-H1 crystal forms A (P6522, 2.2 Å) and B (P212121, 2.8 Å), grown at 277 K by vapor diffusion

KD1 (2:1 heterogeneous ligand model) [1] [µM] | KD2 (2:1 heterogeneous ligand model) [1] [µM] | koff1 (2:1 heterogeneous ligand model) [1] [s⁻¹] | koff2 (2:1 heterogeneous ligand model) [1] [s⁻¹] | kon1 (2:1 heterogeneous ligand model) [1] [M⁻¹ s⁻¹] | kon2 (2:1 heterogeneous ligand model) [1] [M⁻¹ s⁻¹] | Kd [2] [nM] | koff [2] [s⁻¹] | kon [2] [M⁻¹ s⁻¹] | reduction in the amount of ABD cosedimenting with F-actin compared to αEcat-ABD-WT [3] [%] | Binder | binding result [4]
2 | 0.3 | 0.465 | 0.00964 | 234000 | 31900 |  |  |  |  | αE-catenin actin-binding domain, wild type (αEcat-ABD-WT; residues 652-906) (domain or fragment, source: E. coli BL21-CodonPlus, purified (glutathione-sepharose, thrombin cleavage, Superdex 75); not shown: GST, N-terminal, cleaved) SRTSVQTEDDQLIAGQSARAIMAQLPQEQKAKIAEQVASFQEEKSKLDAEVSKWDDSGNDIIVLAKQMCMIMMEMTDFTRGKGPLKNTSDVISAAKKIAEAGSRMDKLGRTIADHCPDSACKQDLLAYLQRIALYCHQLNICSKVKAEVQNLGGELVVSGVDSAMSLIQAAKNLMNAVVQTVKASYVASTKYQKSQGMASLNLPAVSWKMKAPEKKPLVKREKQDETQTKIKRASQKKHVNPVQALSEFKAMDSI | 
 |  |  |  |  |  | 580 | 0.264 | 455000 |  | αE-catenin actin-binding domain with the helix-1 mutation (αEcat-ABD-H1; RAIM670-673GSGS) (domain or fragment, source: E. coli BL21-CodonPlus, purified (glutathione-sepharose, thrombin cleavage, Superdex 75); not shown: GST, N-terminal, cleaved) SRTSVQTEDDQLIAGQSAGSGSAQLPQEQKAKIAEQVASFQEEKSKLDAEVSKWDDSGNDIIVLAKQMCMIMMEMTDFTRGKGPLKNTSDVISAAKKIAEAGSRMDKLGRTIADHCPDSACKQDLLAYLQRIALYCHQLNICSKVKAEVQNLGGELVVSGVDSAMSLIQAAKNLMNAVVQTVKASYVASTKYQKSQGMASLNLPAVSWKMKAPEKKPLVKREKQDETQTKIKRASQKKHVNPVQALSEFKAMDSI | 
4 | 0.6 | 0.945 | 0.00881 | 234000 | 14500 |  |  |  | 36 | αEcat-ABD I792A (domain or fragment, source: E. coli BL21-CodonPlus, purified (glutathione-sepharose, thrombin cleavage, Superdex 75); not shown: GST, N-terminal, cleaved) SRTSVQTEDDQLIAGQSARAIMAQLPQEQKAKIAEQVASFQEEKSKLDAEVSKWDDSGNDIIVLAKQMCMIMMEMTDFTRGKGPLKNTSDVISAAKKIAEAGSRMDKLGRTIADHCPDSACKQDLLAYLQRIALYCHQLNACSKVKAEVQNLGGELVVSGVDSAMSLIQAAKNLMNAVVQTVKASYVASTKYQKSQGMASLNLPAVSWKMKAPEKKPLVKREKQDETQTKIKRASQKKHVNPVQALSEFKAMDSI | 
2.6 | 0.7 | 0.568 | 0.0135 | 221000 | 20100 |  |  |  |  | αEcat-ABD V714A (domain or fragment, source: E. coli BL21-CodonPlus, purified (glutathione-sepharose, thrombin cleavage, Superdex 75); not shown: GST, N-terminal, cleaved) SRTSVQTEDDQLIAGQSARAIMAQLPQEQKAKIAEQVASFQEEKSKLDAEVSKWDDSGNDIIALAKQMCMIMMEMTDFTRGKGPLKNTSDVISAAKKIAEAGSRMDKLGRTIADHCPDSACKQDLLAYLQRIALYCHQLNICSKVKAEVQNLGGELVVSGVDSAMSLIQAAKNLMNAVVQTVKASYVASTKYQKSQGMASLNLPAVSWKMKAPEKKPLVKREKQDETQTKIKRASQKKHVNPVQALSEFKAMDSI | 
27.8 | 4.8 | 0.69 | 0.0107 | 24900 | 2210 |  |  |  | 75 | αEcat-ABD L785A (domain or fragment, source: E. coli BL21-CodonPlus, purified (glutathione-sepharose, thrombin cleavage, Superdex 75); not shown: GST, N-terminal, cleaved) SRTSVQTEDDQLIAGQSARAIMAQLPQEQKAKIAEQVASFQEEKSKLDAEVSKWDDSGNDIIVLAKQMCMIMMEMTDFTRGKGPLKNTSDVISAAKKIAEAGSRMDKLGRTIADHCPDSACKQDLLAYLQRIAAYCHQLNICSKVKAEVQNLGGELVVSGVDSAMSLIQAAKNLMNAVVQTVKASYVASTKYQKSQGMASLNLPAVSWKMKAPEKKPLVKREKQDETQTKIKRASQKKHVNPVQALSEFKAMDSI | 
3.7 | 1.8 | 0.773 | 0.0125 | 211000 | 6910 |  |  |  | 47 | αEcat-ABD V796A (domain or fragment, source: E. coli BL21-CodonPlus, purified (glutathione-sepharose, thrombin cleavage, Superdex 75); not shown: GST, N-terminal, cleaved) SRTSVQTEDDQLIAGQSARAIMAQLPQEQKAKIAEQVASFQEEKSKLDAEVSKWDDSGNDIIVLAKQMCMIMMEMTDFTRGKGPLKNTSDVISAAKKIAEAGSRMDKLGRTIADHCPDSACKQDLLAYLQRIALYCHQLNICSKAKAEVQNLGGELVVSGVDSAMSLIQAAKNLMNAVVQTVKASYVASTKYQKSQGMASLNLPAVSWKMKAPEKKPLVKREKQDETQTKIKRASQKKHVNPVQALSEFKAMDSI | 
38.4 | 6.1 | 0.799 | 0.00849 | 20800 | 1400 |  |  |  | 78 | αEcat-ABD 3A (L785A, I792A and V796A together) (domain or fragment, source: E. coli BL21-CodonPlus, purified (glutathione-sepharose, thrombin cleavage, Superdex 75); not shown: GST, N-terminal, cleaved) SRTSVQTEDDQLIAGQSARAIMAQLPQEQKAKIAEQVASFQEEKSKLDAEVSKWDDSGNDIIVLAKQMCMIMMEMTDFTRGKGPLKNTSDVISAAKKIAEAGSRMDKLGRTIADHCPDSACKQDLLAYLQRIAAYCHQLNACSKAKAEVQNLGGELVVSGVDSAMSLIQAAKNLMNAVVQTVKASYVASTKYQKSQGMASLNLPAVSWKMKAPEKKPLVKREKQDETQTKIKRASQKKHVNPVQALSEFKAMDSI | 
 |  |  |  |  |  |  |  |  |  | αN-catenin actin-binding domain with the helix-1 mutation (αNcat-ABD-H1) (domain or fragment, mouse, UniProt Q61301-2 651-905, looked up, The substitution is printed in αN-catenin's own numbers; PDB 4K1O is the wild-type parent; 6DUW (form A) and 6DUY (form B) are this construct; also called αN-catenin ABD-H1; αN-H1; source: E. coli BL21-CodonPlus, purified (glutathione-sepharose, thrombin cleavage, Superdex 75); 15N-labelled in M9 minimal media for NMR; not shown: GST, N-terminal, cleaved) SRTSVQTEDDQLIAGQSAGSGSAQLPQEEKAKIAEQVEIFHQEKSKLDAEVAKWDDSGNDIIVLAKQMCMIMMEMTDFTRGKGPLKNTSDVINAAKKIAEAGSRMDKLARAVADQCPDSACKQDLLAYLQRIALYCHQLNICSKVKAEVQNLGGELIVSGLDSATSLIQAAKNLMNAVVLTVKASYVASTKYQKVYGTAAVNSPVVSWKMKAPEKKPLVKREKPEEFQTRVRRGSQKKHISPVQALSEFKAMDSF | binds
